From patent US20230302148A1, “PHARMACEUTICAL COMPOSITION COMPRISING LONG-ACTING CONJUGATE OF TRIPLE GLUCAGON/GLP-1/GIP RECEPTOR AGONIST” (HANMI PHARM. CO., LTD., priority 2020, published 2023)
Bridges are numbered along the chain shown (N, C = ends). Where no end group is shown, it is not given here. [ ]: non-standard residue; d: D form. The star is where a group is joined. Acetyl(2-(4-imidazolyl)) = O=C(Cc1c[nH]cn1)*; Aib = CC(C)(N)C(=O)O

biological target: human GLP-1 receptor (human, UniProt P43220 24-463); assay: cell-based or functional assay

| Binder | In vitro activity relative to native peptide (%) vs. GLP-1 [%] |
| --- | --- |
| H[Aib]QGTFTSDYSKYLDEKRQKEFVNWLLAQKC (bridge 16-20) [triple agonist of SEQ ID NO: 34] | 19.1 |
| H[Aib]QGTFTSDYSKYLDEKRAKEFVQWLLDHHPSSGQPPPSC (bridge 16-20) [triple agonist of SEQ ID NO: 50] | 67.4 |
| H[Aib]QGTFTSDYSKYLCEKRQKEFVQWLLNGGPSSGAPPPSG (bridge 16-20) [triple agonist of SEQ ID NO: 36] | 37.4 |
| H[Aib]QGTFTSDKSKYLDERACQDFVQWLLDGGPSSGAPPPS [triple agonist of SEQ ID NO: 40] | 75.2 |
| H[Aib]QGTFTSDYSKYLDEKRQKEFVQWLLNTKC (bridge 16-20) [triple agonist of SEQ ID NO: 58] | 39.1 |
| H[Aib]QGTFTSDYSKYLDEKRQKEFVQWLLNTC (bridge 16-20) [triple agonist of SEQ ID NO: 51] | 14.4 |
| H[Aib]EGTFTSDYSIAMDEIHQKDFVDWLLAEC (bridge 16-20) [triple agonist of SEQ ID NO: 54] | 30.6 |
| H[Aib]QGTFTSDYSKYLDEKRQKEFVQWLLDTC (bridge 16-20) [triple agonist of SEQ ID NO: 52] | 44.1 |
| H[Aib]EGTFTSDYSIAMDEIHQKDFVNWLLAQC (bridge 16-20) [triple agonist of SEQ ID NO: 53] | 161 |
| H[Aib]QGTFTSDYSKYLDGQHAQCFVAWLLAGGGPSSGAPPPS [triple agonist of SEQ ID NO: 39] | 13.9 |
| Y[Aib]QGTFTSDYSKYLDEKRAKEFVQWLLDHHCSSGQPPPS (bridge 16-20) [triple agonist of SEQ ID NO: 43] | 12.6 |
| [Acetyl(2-(4-imidazolyl))][Aib]QGTFTSDYSICMDEIHQKDFVNWLLNTK (bridge 16-20; not fully specified) [triple agonist of SEQ ID NO: 49] | 29.8 |
| [Acetyl(2-(4-imidazolyl))][Aib]QGTFTSDYSICMDEKHQKDFVNWLLNTK (bridge 16-20; not fully specified) [triple agonist of SEQ ID NO: 59] | 40.3 |
| H[Aib]QGTFTSDYSIAMDEIHQKDFVNWLLAQC (bridge 16-20) [triple agonist of SEQ ID NO: 55] | 27.1 |
| [Acetyl(2-(4-imidazolyl))][Aib]QGTFTSDKSSYLDERAAQDFVQWLLDGGPSSGAPPPSS (not fully specified) [triple agonist of SEQ ID NO: 38] | 2.3 |

biological target: T1, human GIP receptor (human, UniProt P48546 22-466); assay: cell-based or functional assay
T1 sequence (looked up): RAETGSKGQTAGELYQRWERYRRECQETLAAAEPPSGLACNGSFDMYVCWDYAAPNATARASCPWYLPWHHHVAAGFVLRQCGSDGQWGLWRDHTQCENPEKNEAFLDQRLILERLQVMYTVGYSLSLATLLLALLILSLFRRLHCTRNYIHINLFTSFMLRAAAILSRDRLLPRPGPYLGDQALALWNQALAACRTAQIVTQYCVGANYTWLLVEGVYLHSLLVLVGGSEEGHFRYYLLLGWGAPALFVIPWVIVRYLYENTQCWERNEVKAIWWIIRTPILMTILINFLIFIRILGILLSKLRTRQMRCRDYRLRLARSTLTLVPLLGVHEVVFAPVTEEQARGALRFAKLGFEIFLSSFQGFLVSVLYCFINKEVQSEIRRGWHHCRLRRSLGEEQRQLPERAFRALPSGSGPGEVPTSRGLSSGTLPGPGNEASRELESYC

| Binder | In vitro activity relative to native peptide (%) vs. GIP [%] |
| --- | --- |
| H[Aib]QGTFTSDYSKYLDEKRQKEFVNWLLAQKC (bridge 16-20) [triple agonist of SEQ ID NO: 34] | 0.6 |
| H[Aib]QGTFTSDYSKYLDEKRAKEFVQWLLDHHPSSGQPPPSC (bridge 16-20) [triple agonist of SEQ ID NO: 50] | 2.7 |
| H[Aib]QGTFTSDYSKYLCEKRQKEFVQWLLNGGPSSGAPPPSG (bridge 16-20) [triple agonist of SEQ ID NO: 36] | 0.2 |
| H[Aib]QGTFTSDKSKYLDERACQDFVQWLLDGGPSSGAPPPS [triple agonist of SEQ ID NO: 40] | < 0.1 |
| H[Aib]QGTFTSDYSKYLDEKRQKEFVQWLLNTKC (bridge 16-20) [triple agonist of SEQ ID NO: 58] | 0.2 |
| H[Aib]QGTFTSDYSKYLDEKRQKEFVQWLLNTC (bridge 16-20) [triple agonist of SEQ ID NO: 51] | 0.1 |
| H[Aib]EGTFTSDYSIAMDEIHQKDFVDWLLAEC (bridge 16-20) [triple agonist of SEQ ID NO: 54] | 0.1 |
| H[Aib]QGTFTSDYSKYLDEKRQKEFVQWLLDTC (bridge 16-20) [triple agonist of SEQ ID NO: 52] | 0.3 |
| H[Aib]EGTFTSDYSIAMDEIHQKDFVNWLLAQC (bridge 16-20) [triple agonist of SEQ ID NO: 53] | 1.3 |
| H[Aib]QGTFTSDYSKYLDGQHAQCFVAWLLAGGGPSSGAPPPS [triple agonist of SEQ ID NO: 39] | < 0.1 |
| Y[Aib]QGTFTSDYSKYLDEKRAKEFVQWLLDHHCSSGQPPPS (bridge 16-20) [triple agonist of SEQ ID NO: 43] | 3.7 |
| [Acetyl(2-(4-imidazolyl))][Aib]QGTFTSDYSICMDEIHQKDFVNWLLNTK (bridge 16-20; not fully specified) [triple agonist of SEQ ID NO: 49] | 3.3 |
| [Acetyl(2-(4-imidazolyl))][Aib]QGTFTSDYSICMDEKHQKDFVNWLLNTK (bridge 16-20; not fully specified) [triple agonist of SEQ ID NO: 59] | 4 |
| H[Aib]QGTFTSDYSIAMDEIHQKDFVNWLLAQC (bridge 16-20) [triple agonist of SEQ ID NO: 55] | 2.4 |
| [Acetyl(2-(4-imidazolyl))][Aib]QGTFTSDKSSYLDERAAQDFVQWLLDGGPSSGAPPPSS (not fully specified) [triple agonist of SEQ ID NO: 38] | 1 |

biological target: human GCG receptor (human, UniProt P47871 26-477); assay: cell-based or functional assay
Sequence (P47871 26-477): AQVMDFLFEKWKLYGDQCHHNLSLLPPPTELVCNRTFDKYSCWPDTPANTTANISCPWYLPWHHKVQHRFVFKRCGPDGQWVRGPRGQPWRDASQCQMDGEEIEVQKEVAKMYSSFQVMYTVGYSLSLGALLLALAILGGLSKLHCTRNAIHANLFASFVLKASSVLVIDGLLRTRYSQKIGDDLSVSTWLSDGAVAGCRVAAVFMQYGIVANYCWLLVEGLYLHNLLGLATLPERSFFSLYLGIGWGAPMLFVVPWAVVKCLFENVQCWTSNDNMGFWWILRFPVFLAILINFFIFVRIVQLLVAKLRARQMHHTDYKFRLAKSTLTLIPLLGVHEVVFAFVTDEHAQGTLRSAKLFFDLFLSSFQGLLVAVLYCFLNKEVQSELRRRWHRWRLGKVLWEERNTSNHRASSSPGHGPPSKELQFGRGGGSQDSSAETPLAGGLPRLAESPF

| Binder | In vitro activity relative to native peptide (%) vs. Glucagon [%] |
| --- | --- |
| H[Aib]QGTFTSDYSKYLDEKRQKEFVNWLLAQKC (bridge 16-20) [triple agonist of SEQ ID NO: 34] | 0.92 |
| H[Aib]QGTFTSDYSKYLDEKRAKEFVQWLLDHHPSSGQPPPSC (bridge 16-20) [triple agonist of SEQ ID NO: 50] | 50.5 |
| H[Aib]QGTFTSDYSKYLCEKRQKEFVQWLLNGGPSSGAPPPSG (bridge 16-20) [triple agonist of SEQ ID NO: 36] | 0.39 |
| H[Aib]QGTFTSDKSKYLDERACQDFVQWLLDGGPSSGAPPPS [triple agonist of SEQ ID NO: 40] | < 0.1 |
| H[Aib]QGTFTSDYSKYLDEKRQKEFVQWLLNTKC (bridge 16-20) [triple agonist of SEQ ID NO: 58] | 2.6 |
| H[Aib]QGTFTSDYSKYLDEKRQKEFVQWLLNTC (bridge 16-20) [triple agonist of SEQ ID NO: 51] | 2 |
| H[Aib]EGTFTSDYSIAMDEIHQKDFVDWLLAEC (bridge 16-20) [triple agonist of SEQ ID NO: 54] | 1.4 |
| H[Aib]QGTFTSDYSKYLDEKRQKEFVQWLLDTC (bridge 16-20) [triple agonist of SEQ ID NO: 52] | 7.5 |
| H[Aib]EGTFTSDYSIAMDEIHQKDFVNWLLAQC (bridge 16-20) [triple agonist of SEQ ID NO: 53] | 8.4 |
| H[Aib]QGTFTSDYSKYLDGQHAQCFVAWLLAGGGPSSGAPPPS [triple agonist of SEQ ID NO: 39] | 0.53 |
| Y[Aib]QGTFTSDYSKYLDEKRAKEFVQWLLDHHCSSGQPPPS (bridge 16-20) [triple agonist of SEQ ID NO: 43] | 88.4 |
| [Acetyl(2-(4-imidazolyl))][Aib]QGTFTSDYSICMDEIHQKDFVNWLLNTK (bridge 16-20; not fully specified) [triple agonist of SEQ ID NO: 49] | < 0.1 |
| [Acetyl(2-(4-imidazolyl))][Aib]QGTFTSDYSICMDEKHQKDFVNWLLNTK (bridge 16-20; not fully specified) [triple agonist of SEQ ID NO: 59] | < 0.1 |
| H[Aib]QGTFTSDYSIAMDEIHQKDFVNWLLAQC (bridge 16-20) [triple agonist of SEQ ID NO: 55] | 0.7 |
| [Acetyl(2-(4-imidazolyl))][Aib]QGTFTSDKSSYLDERAAQDFVQWLLDGGPSSGAPPPSS (not fully specified) [triple agonist of SEQ ID NO: 38] | 1 |
